This is an account of results in patent publication US20040121942A1 (University of California, published 2004).

Assay [1] addresses T1, endogenous wild-type PLB of rat cardiac myocytes (rat, UniProt P61016 1-52).
T1 sequence (looked up): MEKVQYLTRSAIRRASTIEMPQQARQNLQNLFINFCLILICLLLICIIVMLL
The experiment in a line: cell-based or functional assay.

Assay [2] addresses T2, sense PLB (wild-type phospholamban) expressed from a recombinant adenovirus (human, UniProt P26678 1-52).
T2 construct: ID; PLB exists as pentamer and monomer; also called sPLB; wild-type PLB
T2 sequence: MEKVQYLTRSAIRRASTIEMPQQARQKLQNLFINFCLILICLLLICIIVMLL
Put plainly: Western blot of Sol8 cells co-infected with sPLB and K3E/R14E; bands read as heteropentamer. In general terms: In western blotting, separated proteins are transferred to a membrane and probed.

B1: K3E/R14E double point mutation of PLB expressed from a recombinant adenovirus (other)
chain: MEEVQYLTRSAIREASTIEMPQQARQKLQNLFINFCLILICLLLICIIVMLL
notes: ID
B1: the “lowering of the EC50 of Ca2+ for SR Ca2+ uptake, adult rat myocytes” value in assay [1] was found to be 36%. For the same molecule, in assay [2], the binding result is “binds”.
